# Changes are numbered by the printed parent chain.
# B1: murine-human chimeric (human IgG1) antibody 504E12D8D12 (antibody, V domains shown)
# VH: EVQLVESGGGLVQPKGSLKLSCAASGFSFNTYAMNWVRQAPGKGLEWVARIRTKSNNYATYYAASVKDRFTISRDDSETMLYLQMNNLKTEDTAMYYCVRGGSGLNYVRYFDVWGTGTTVTVSS
# VL: DIVMTQAAPSVFVIPGESVSISCRSSKSLLHSNGNTYLYWFLQRPGQSPQLLIYRMSNLASGVPDRFSGSGSGSAFTLRISRVEAEDVGVYYCMQHLEYPFTFGSGTKLEIKR
# notes: Chimeric antibody derived from murine antibody A18 and human IgG1; also called chimeric 504E12D8D12 mAb
# B2: murine-human chimeric (human IgG1) antibody 41E1C2A5 (antibody, V domains shown)
# VH: EVQLVESGGGLVQPKGSLKLSCAASGFSFNAYAMNWVRQAPGKGLEWVARIRSKSNNYATYYADSVKDRFTISRDDSETMLYLQMNNLKTEDTAMYFCVRGGTYGSSSYFDYWGQGTTLTVSS
# VL: B1 VL with F12P, I14T, S22P, S74T, S105G, E110Q, K112R
# B3: mouse antibody 46A5C4B1 (MAb 2) (antibody, V domains shown)
# VH: B2 VH with T71I, T79S, S107T
# VL: DIVMTQAAPSVPVTPGESVSISCRSSKSLLHSNGNTYLYWFLQRPGQSPQLLIYRMSNLASGVPDRFSGSGSGTAFTLRISRVEAEDVGVYYCMQHLEYPFTFGGGTKLEIK
# notes: Mouse monoclonal antibody from a hybridoma; also called A2
# B4: mouse antibody 529D10C10 (MAb 6) (antibody, V domains shown)
# VH: B1 VH with K15R, T31A, A64D, T79S, N86I, L105I, N106R, R109K
# VL: B3 VL with D65E, T74S, G105S
# B5: mouse antibody 525F2F3F11 (MAb 11) (antibody, V domains shown)
# VH: B1 VH with A64D, T79N, N106R
# VL: B3 VL with A8T, D65E, T74S, I80V, G105S
# B6: mouse antibody 536H9D10 (MAb 7) (antibody, V domains shown)
# VH: B1 VH with K15G, T31A, A64D, T79S, N86I, L105I, N106R, R109K
# VL: B3 VL with D65E, T74S, G105S
# B7: mouse antibody 508C11A12 (MAb 5) (antibody, V domains shown)
# VH: B1 VH with A64D, T79N, M80I, L105I, N106K
# VL: B3 VL with D65E, T74S, G105S
# B8: mouse antibody 506G6G5 (MAb 8) (antibody, V domains shown)
# VH: B1 VH with T53S, A64D, T79S, L105I, N106S
# VL: B3 VL with T74S, G105S
# B9: mouse antibody 507B6B10 (MAb 14) (antibody, V domains shown)
# VH: B1 VH with T53S, A64D, T79S, L105I, N106R
# VL: B3 VL with L30Q, T36I, T74S, G105S
# B10: mouse antibody 526G1C12 (MAb 16) (antibody, V domains shown)
# VH: B1 VH with N30K, K43E, A64D, T116P
# VL: B3 VL with P12L, I21F, Y54F, T74S, G105S
# B11: mouse antibody 531A3E12H8 (MAb 17) (antibody, V domains shown)
# VH: B1 VH with Y61F, A64D, D75H, T79S, L105I, N106R
# VL: B3 VL with P12T, N58D, T74S, G105S
# B12: mouse antibody 504E12D8D12 (MAb 18) (antibody, V domains shown)
# VH: B1 VH
# VL: B3 VL with P12F, T14I, T74S, G105S
# B13: mouse antibody 531A6A3 (MAb 9) (antibody, V domains shown)
# VH: B1 VH with N30K, A64D
# VL: B3 VL with T74S, G105S
# B14: mouse antibody 516D7D12 (MAb 10) (antibody, V domains shown)
# VH: B1 VH with A64D, T79S, N106R
# VL: B3 VL with A8T, D65E, T74S, I80V, G105S
# B15: mouse antibody 41E1C2A5 (MAb 1) (antibody, V domains shown)
# VH: B2 VH
# VL: B3 VL with S22P, E110Q, K112R
# notes: Mouse monoclonal antibody from a hybridoma; also called A1
# B16: mouse antibody 80E4D1F11 (MAb 3) (antibody, V domains shown)
# VH: B2 VH with A31T, D68A, T79S, S107T
# VL: B3 VL
# notes: Mouse monoclonal antibody from a hybridoma; also called A3
# B17: mouse antibody 419C7B3B2 (MAb 4) (antibody, V domains shown)
# VH: EVQLQQSGPELVKPGSSVKISCKASGYTFTDYNMDWVKQSHGKSLEWIGAINPNNGGTGYTQKFKGKATLTVDKSSSTAFMELRSLTSEDSAVYYCARRGVYMFAYWGQGTLVTVSA
# VL: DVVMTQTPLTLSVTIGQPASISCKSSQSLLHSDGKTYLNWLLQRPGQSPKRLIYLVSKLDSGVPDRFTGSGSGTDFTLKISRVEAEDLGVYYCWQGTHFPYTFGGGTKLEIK
# B18: mouse antibody 530H3G7D9 (MAb 12) (antibody, V domains shown)
# VH: EVQLVESGGGLVQPKGSLKLSCAASGFSFNTYAMNWVRQAPGKGLDWVARIRSKSNNYATYYADSVKDRFTISRDDSESMLYLQMNNLKTEDTAMYFCVRQTYGSRDYAMDYWGQGTSVTVSS
# VL: DVVMTQTPLSLPVSLGDQASISCRSSQSLVHSNGNTYLHWYLQKPGQSPKLLIYKVSNRFSGVPDRFSGSGSGTDFTLKISRVEAEDLGVYFCCQSTHVPPYTFGGGTKLEIK
# B19: mouse antibody 538H5G10 (MAb 19) (antibody, V domains shown)
# VH: B18 VH with T31A, D46E, Y58F, F97Y
# VL: B18 VL with Q18R, K50R, C94S, S96N
# B20: mouse antibody 509H4E10B3 (MAb 15) (antibody, V domains shown)
# VH: B18 VH with K15R, T31A, D46E, Y58F, F97Y
# VL: B18 VL with Q18R, K50R, C94S
# B21: mouse antibody 531B9B1C9 (MAb 13) (antibody, V domains shown)
# VH: B18 VH with T31A
# VL: B18 VL
# B22: murine-human chimeric (human IgG1) antibody 516D7D12 (antibody, V domains shown)
# VH: B1 VH with A64D, T79S, N106R
# VL: B1 VL with A8T, F12P, I14T, D65E, I80V
# notes: Chimeric antibody derived from murine antibody A10 and human IgG1
# B23: murine-human chimeric (human IgG1) antibody 525F2F3F11 (antibody, V domains shown)
# VH: B1 VH with A64D, T79N, N106R
# VL: B1 VL with A8T, F12P, I14T, D65E, I80V
# notes: Chimeric antibody derived from murine antibody A11 and human IgG1
# Molecular target: T1, human C-C chemokine receptor type 8 (hCCR8) (human, UniProt P51685 1-355)
# Test: cell-based or functional assay
# T1 sequence (P51685 whole entry): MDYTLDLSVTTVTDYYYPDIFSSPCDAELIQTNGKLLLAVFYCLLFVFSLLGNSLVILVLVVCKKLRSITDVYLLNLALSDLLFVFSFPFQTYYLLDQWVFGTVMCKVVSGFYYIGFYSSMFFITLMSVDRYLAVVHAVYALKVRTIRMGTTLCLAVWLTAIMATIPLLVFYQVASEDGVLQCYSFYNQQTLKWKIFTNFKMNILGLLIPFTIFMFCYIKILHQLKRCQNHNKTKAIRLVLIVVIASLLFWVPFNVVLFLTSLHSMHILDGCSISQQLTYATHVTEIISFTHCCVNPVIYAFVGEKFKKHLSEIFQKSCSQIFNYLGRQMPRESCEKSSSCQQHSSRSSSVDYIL
row,Binder,EC50 of ADCC activity (column head prints IC50 (nM)); ADCC/NFAT-reporter-Jurkat bioassay [nM]
1,B1,0.015
2,B2,0.049

# Molecular target: T1, human C-C chemokine receptor type 8 …
# Test: cell-based or functional assay
# Remark: another data set of the same source
row,Binder,"inhibition of β-arrestin production (CCR8 CHO-K1 β-arrestin bioassay, 2 nM hCCL1, subclone supernatant) [%]"
1,B3,≥ 50
2,B4,≥ 50
3,B5,≥ 50
4,B6,≥ 50
5,B7,≥ 50
6,B8,≥ 50
7,B9,≥ 50
8,B10,≥ 50
9,B11,≥ 50
10,B12,≥ 50
11,B13,≥ 50
12,B14,≥ 50
13,B15,≥ 50
14,B16,≥ 50
15,B17,≥ 50
16,B18,≥ 50
17,B19,≥ 50
18,B20,≥ 50
19,B21,≥ 50

# Molecular target: T2, human CCR4 (hCCR4) (human, UniProt P51679 1-360)
# T2 construct: whole, on cells
# T2 sequence (looked up): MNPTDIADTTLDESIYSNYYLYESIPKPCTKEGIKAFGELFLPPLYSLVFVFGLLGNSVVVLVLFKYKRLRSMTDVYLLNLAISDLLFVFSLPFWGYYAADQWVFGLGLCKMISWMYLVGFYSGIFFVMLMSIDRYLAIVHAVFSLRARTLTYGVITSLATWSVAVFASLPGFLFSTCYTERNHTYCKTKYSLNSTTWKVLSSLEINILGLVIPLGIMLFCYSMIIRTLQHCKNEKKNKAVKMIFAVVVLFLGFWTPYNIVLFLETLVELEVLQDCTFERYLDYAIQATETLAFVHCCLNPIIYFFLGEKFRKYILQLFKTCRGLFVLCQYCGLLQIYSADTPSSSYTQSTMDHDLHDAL
# Test: flow cytometry on hCCR4-expressing CHO-K1 cells against parental CHO-K1 cells
# Experimental: The antibodies were further screened for binding to human CCR4 (hCCR4) by flow cytometry. The antibodies were incubated with CHO-K1 cells and hCCR4-expressing CHO-K1 cells for 60 minutes at 4° C. The cells were washed thoroughly with PBS buffer and were then incubated with FITC-conjugated goat anti-mouse IgG Fc antibody or anti-human IgG Fc antibody. Mean Fluorescence Intensity (MFI) of antibody binding on the cells were analyzed by flow cytometry (Table 7).
row,Binder,binding result
1,B22,no binding
2,B23,no binding
3,B1,no binding
4,B3,no binding
5,B15,no binding
6,B16,no binding

# Molecular target: T1, human C-C chemokine receptor type 8 …
# Test: cell-based or functional assay
# Remark: another data set of the same source
row,Binder,"IC50 (nM), antagonist activity measured by β-arrestin assay [nM]"
1,B22,1.51
2,B23,1.52
3,B1,0.867
4,B3,6.24
5,B15,4.68
6,B16,7.11

# Reference: US20260109770A1 (REMD BIOTHERAPEUTICS, published 2026)
